The text below walks through data of patent US20160200782A1 (MOERAE MATRIX, published 2016).

Some targets named below: LIMK1(h) (human, UniProt P53667 285-638, limits assumed); CDK1/cyclinB(h) (human, UniProt P06493 1-297; P06493 1-297); CDK3/cyclinE(h) (human, UniProt Q00526 1-305; Q00526 1-305); CK2(h) (human).
Assay in all cases: cell-based or functional assay
A further experiment addresses T1, MST2(h) (human, UniProt Q13188 1-491, limits assumed).
T1 sequence (looked up): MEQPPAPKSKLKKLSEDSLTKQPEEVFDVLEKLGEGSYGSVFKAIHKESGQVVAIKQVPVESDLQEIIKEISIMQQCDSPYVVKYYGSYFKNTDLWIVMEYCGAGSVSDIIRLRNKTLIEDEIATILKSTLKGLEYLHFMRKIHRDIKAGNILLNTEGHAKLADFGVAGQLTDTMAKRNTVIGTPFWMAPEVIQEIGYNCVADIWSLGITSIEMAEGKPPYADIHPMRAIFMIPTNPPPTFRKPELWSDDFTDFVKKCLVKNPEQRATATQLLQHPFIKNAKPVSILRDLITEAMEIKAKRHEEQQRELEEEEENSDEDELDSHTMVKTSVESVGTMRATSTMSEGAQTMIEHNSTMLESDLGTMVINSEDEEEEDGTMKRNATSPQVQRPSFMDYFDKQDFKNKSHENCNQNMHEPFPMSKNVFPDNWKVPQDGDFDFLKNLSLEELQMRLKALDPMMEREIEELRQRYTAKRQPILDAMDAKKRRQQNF

A further experiment deals with T2, PKCµ(h) (human, UniProt Q15139 1-912, limits assumed).
T2 sequence (looked up): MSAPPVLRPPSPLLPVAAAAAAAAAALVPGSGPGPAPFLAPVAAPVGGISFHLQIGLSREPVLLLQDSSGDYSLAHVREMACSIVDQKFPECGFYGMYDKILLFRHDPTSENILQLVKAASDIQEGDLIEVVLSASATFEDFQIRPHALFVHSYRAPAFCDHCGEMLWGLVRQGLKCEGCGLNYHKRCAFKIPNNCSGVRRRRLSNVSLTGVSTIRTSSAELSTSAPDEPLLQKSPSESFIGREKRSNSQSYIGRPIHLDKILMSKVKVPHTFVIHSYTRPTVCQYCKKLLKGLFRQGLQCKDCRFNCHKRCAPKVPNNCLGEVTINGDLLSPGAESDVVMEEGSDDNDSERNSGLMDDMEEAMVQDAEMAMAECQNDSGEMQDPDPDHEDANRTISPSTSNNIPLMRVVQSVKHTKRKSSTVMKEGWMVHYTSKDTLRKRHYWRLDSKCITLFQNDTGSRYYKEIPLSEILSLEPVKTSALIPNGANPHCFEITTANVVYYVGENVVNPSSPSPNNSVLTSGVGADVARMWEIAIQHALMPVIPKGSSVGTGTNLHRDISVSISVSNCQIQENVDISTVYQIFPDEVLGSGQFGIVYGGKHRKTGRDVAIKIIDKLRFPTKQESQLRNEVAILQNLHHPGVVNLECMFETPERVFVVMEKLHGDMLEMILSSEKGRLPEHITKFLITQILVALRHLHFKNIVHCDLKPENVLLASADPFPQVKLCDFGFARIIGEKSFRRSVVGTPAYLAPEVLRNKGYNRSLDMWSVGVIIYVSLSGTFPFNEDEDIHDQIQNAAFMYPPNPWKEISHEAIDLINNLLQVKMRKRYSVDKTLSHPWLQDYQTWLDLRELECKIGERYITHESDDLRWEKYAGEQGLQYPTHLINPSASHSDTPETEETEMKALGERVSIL

The next experiment addresses T3, PRAK(h) (human, UniProt Q8IW41 1-473, limits assumed).
T3 sequence (looked up): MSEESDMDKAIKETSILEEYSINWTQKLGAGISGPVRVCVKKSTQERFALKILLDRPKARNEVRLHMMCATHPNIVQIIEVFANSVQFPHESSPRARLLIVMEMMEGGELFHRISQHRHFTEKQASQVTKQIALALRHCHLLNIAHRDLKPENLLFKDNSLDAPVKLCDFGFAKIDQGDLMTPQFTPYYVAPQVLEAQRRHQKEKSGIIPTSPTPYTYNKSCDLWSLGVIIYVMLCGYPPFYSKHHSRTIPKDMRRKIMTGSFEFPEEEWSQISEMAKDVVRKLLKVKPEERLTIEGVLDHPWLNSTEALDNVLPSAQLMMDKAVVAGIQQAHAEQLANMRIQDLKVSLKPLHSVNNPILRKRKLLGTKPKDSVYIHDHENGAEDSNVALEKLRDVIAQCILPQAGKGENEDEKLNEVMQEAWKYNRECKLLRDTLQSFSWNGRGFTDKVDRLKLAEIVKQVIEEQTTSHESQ

Another experiment deals with T4, TAO2(h) (human, UniProt Q9UL54 1-314, limits assumed).
T4 sequence (looked up): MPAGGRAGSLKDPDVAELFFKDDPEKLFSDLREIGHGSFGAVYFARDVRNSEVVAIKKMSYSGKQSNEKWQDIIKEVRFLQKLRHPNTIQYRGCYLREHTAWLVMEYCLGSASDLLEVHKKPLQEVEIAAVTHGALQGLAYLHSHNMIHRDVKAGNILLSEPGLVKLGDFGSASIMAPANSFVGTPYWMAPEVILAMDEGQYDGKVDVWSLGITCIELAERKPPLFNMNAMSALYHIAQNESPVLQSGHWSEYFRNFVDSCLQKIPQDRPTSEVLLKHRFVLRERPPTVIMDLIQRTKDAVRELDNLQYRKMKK

A further experiment deals with T5, EphB3(h) (human, UniProt P54753 581-998, limits assumed).
T5 sequence (looked up): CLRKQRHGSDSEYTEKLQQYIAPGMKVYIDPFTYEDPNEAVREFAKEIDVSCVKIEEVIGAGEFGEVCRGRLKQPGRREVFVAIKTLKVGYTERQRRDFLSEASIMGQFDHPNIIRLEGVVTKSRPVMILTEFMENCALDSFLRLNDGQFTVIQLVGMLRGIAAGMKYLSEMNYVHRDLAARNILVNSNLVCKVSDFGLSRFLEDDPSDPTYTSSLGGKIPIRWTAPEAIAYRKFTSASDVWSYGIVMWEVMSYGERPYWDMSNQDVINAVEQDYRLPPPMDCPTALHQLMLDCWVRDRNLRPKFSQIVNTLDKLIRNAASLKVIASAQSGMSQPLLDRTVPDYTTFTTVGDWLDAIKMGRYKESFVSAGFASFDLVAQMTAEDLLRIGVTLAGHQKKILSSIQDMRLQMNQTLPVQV

Sequence of CDK3/cyclinE(h) (Q00526 whole entry, chain 1 of 2): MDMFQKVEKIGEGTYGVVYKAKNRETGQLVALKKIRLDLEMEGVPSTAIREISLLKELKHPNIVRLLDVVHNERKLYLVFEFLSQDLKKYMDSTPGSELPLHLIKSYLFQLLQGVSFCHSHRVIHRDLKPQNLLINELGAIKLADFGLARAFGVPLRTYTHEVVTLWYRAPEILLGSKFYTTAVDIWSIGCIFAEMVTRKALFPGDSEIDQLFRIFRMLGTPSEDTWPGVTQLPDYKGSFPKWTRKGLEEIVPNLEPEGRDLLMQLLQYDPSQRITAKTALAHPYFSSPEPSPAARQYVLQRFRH
Sequence of CDK3/cyclinE(h) (Q00526 whole entry, chain 2 of 2): as the sequence (Q00526 whole entry, chain 1 of 2) above
Sequence of CDK1/cyclinB(h) (P06493 whole entry, chain 1 of 2): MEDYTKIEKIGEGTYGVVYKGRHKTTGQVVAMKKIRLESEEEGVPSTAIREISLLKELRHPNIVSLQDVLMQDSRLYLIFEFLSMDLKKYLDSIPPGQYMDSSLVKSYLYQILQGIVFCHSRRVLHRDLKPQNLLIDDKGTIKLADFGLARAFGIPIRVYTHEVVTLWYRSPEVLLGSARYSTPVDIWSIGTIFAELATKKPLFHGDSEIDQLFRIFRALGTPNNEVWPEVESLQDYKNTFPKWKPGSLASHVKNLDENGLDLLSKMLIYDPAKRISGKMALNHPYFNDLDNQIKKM
Sequence of CDK1/cyclinB(h) (P06493 whole entry, chain 2 of 2): as the sequence (P06493 whole entry, chain 1 of 2) above
Sequence of LIMK1(h) (P53667 285-638 limits assumed): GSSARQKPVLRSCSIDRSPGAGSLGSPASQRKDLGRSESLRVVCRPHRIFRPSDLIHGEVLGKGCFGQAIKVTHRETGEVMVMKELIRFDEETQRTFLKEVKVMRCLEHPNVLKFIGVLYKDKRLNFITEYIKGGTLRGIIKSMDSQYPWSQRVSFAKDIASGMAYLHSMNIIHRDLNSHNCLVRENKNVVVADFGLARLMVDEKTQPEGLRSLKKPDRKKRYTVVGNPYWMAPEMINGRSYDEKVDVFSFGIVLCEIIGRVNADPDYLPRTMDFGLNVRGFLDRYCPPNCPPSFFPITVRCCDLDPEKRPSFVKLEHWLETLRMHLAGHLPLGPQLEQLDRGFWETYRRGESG

B1: MMI-0300 (peptide)
peptide: FAKLAARLYRKALARQLGVAA
Regarding B1, the “% activity” value in the experiment with LIMK1(h) is 88%; with MST2(h), 19%; with PKCµ(h), 22%; in the experiment with PRAK(h) it was 128%; with TAO2(h) it was 70%; with CDK1/cyclinB(h) it was 73%. For the same molecule, the results for the “% activity” value in the experiment with CDK3/cyclinE(h), with CK2(h) and with EphB3(h) were 94%, 90% and 62%, respectively.

B2: MMI-0400 (peptide)
peptide: KAFAKLAARLYRKALARQLGVAA
In the case of B2, the “% activity” value in the experiment with LIMK1(h) amounted to 92%; with MST2(h), 11%; with PKCµ(h), 14%; with PRAK(h), 118%; with TAO2(h) it was 74%; with CDK1/cyclinB(h), 74%. Further, the entries for the “% activity” value with CDK3/cyclinE(h), with CK2(h) and with EphB3(h) were 92%, 101% and 47%, respectively.
